Laboratory results reported in paper PMC8562849 (The Journal of Cell Biology, 2021).

Columns and labels:
Pin1 (GST-Pin1) = Pin1 (GST-Pin1) (UniProt Q13526); assay: GST-Pin1 pull-down from U2OS lysate; settings: reference: SST-MTAP (wild type); sites S398,S405,T408
spindly = spindly (UniProt Q96EA4); assay: SBP affinity purification, immunoblot; settings: reference: SST-MTAP, sites S398,S405,T408
[1] = target: GST-tagged Pin1 (prolyl isomerase interacting NIMA 1) (UniProt Q13526 1-163); assay: pull-down

With “hLIC1 (dynein light intermediate chain 1) (from UniProt Q9Y6G9) AAA-MTAP” the “binding against the reference” value (Pin1 (GST-Pin1)) was “weaker”.

With “hLIC1 (dynein light intermediate chain 1) (from UniProt Q9Y6G9) AAA-MTAP, prometaphase lysate” the “binding against the reference” value (spindly; prometaphase lysate) was “weaker”.

“hLIC1 (dynein light intermediate chain 1) (from UniProt Q9Y6G9) AAA-MTAP, metaphase lysate” was tested, and the “binding against the reference” value (spindly; metaphase lysate) was “weaker”.

B1: purified rLIC1-CTD (aa 389-523), phosphorylated in vitro by cdk1-cyclin B (domain or fragment, rat, UniProt Q9QXU8 389-523, looked up)
chain: TAAGRPVDASPRVPGGSPRTPNRSVSSNVASVSPIPAGSKKIDPNMKAGATSEGVLANFFNSLLSKKTGSPGGPGVGGSPGGGAAGASTSLPPSAKKSGQKPVLSDVHAELDRITRKPASVSPTTPPSPTEGEAS
modifications: phosphorylated in vitro by cdk1-cyclin B (three cdk1 sites S398, S405, T408)
B1: binds [1].
